# In the nanobody polyreactivity screen of Harvey et al. (2022):
# Assay: yeast display, Sf9 membrane polyspecificity reagent, FACS + sequencing; frameworks hold sequencing errors
# How it was run: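 Polyreactivity labels are assigned by the sorting gate from which each nanobody was recovered. The gates were low and high (top ~1%), set on anti-HA fluorescence for expression and streptavidin fluorescence for reagent binding. Before sorting, galactose-induced (36–48 hours) yeast display cells were stained for 1 hour at 4 °C with 10% biotinylated, detergent-solubilized Sf9 membrane reagent.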
row,Sequence,polyreactivity (PSR sort gate)
1,QVQLVDSGGGVVQAGGSLRLSCAASGFIFHRYAMGWYRPAPGKERELVASITRSGGSTYYADSVKGRFTISRDNAKNTVYLQMNSLKPEDTAVYYCAAQLPAYYKYPRHDYWGQGTQVTVSS,high polyreactivity
2,QVQLVDSGGVLVQAVGSLRLSCAASGIIFDWYAMGWYRQAPGKERELVAAITANSDSTYYADSVNGRFTISRDNAKNTVYLQMNSLKPEDTAVYYCAARRQHRGANGGDYCGQGTQVTVSS,high polyreactivity
3,QVQLVDSGPGLVQAGGSLRLSCAASGGTFQPNARGCYRQAPGKERELVAAISGSGDSTYYADSVKGRFTISRDNAKNTVYLQMNSLKPEDTAVYYCNAYFWFSRYAWGDTSYDYWGQGTQVTVSS,low polyreactivity
4,QVQLVDSGVGLVQAGGRLSLSCAASGLIFDFYAMGGYRQAPGKERELVATISWSGGTTSYADSVKGLFTISRDNAKNTVYIQMNSLKPEDTAVYYCAADGFQYTLGNYYWGQGTQVTLSS,high polyreactivity
5,QVQLVDSRGGLVQAGGSLRLSCAASGRTFYRYAKGWDRPAPGKERDLVAVITSGSRTKYADSVKGRFTISRDTAKITVYLQMKSLKPEDTAVYSCAARGLALEGKSSGEYWGQGTQVTVSS,high polyreactivity
6,QVQLVDSRGGLVQAGGSLRLSCAASGSIFSYYAMGWYRQAPGKEMELVAAITSSDGSTYYPDSVKGRFTISRDNAKNTVYLQINSLKPEDTAVYDCKAVRKYWLLGRYDYWGQGTQVTVSS,high polyreactivity
7,QVQLVDSWGGLVQAGASLRLSCAASGNTYSSYAMGWYRKAPGKERELVASITGRGGSTYYSDSVKGRFTISRDNAKNIVYLQMNSLKPEDTAVYYCTAKRFYITDDPLDYFYWGQCTQVTVSS,high polyreactivity
8,QVQLVDTAGGLVQAGGILRLSCAASGSTMYGYAMGWYRQTPGKERELVAAINTGGSTNYADSVKGRFTISRDNAKNTVYLQMNSLKPDDTAVYYCAASYSLSFWDKDDYWGQGTQVTVSS,low polyreactivity
9,QVQLVDTGGGLGQAGGSLRLSCAASGSTFFPYAMGWYRQAPGKEREFVAGISSDGGTSYADSVKGRFTISRDNAKNTVYLQMNSLKPEDTAVYYCAALQADRDRYPEFDLMDYWGQGTQVSVSS,low polyreactivity
10,QVQLVDTGGGLVQAGGSLRLICAASGSIFKIYAMGWYRQAPGKERELVAAISSSGGSTYYADSVKGRFTISRDNAKNTVYLQMNCLKPEDTAVYYCAAGQSWRKNAYRYDYWGQGTQVTVSS,high polyreactivity
11,QVQLVEAGGGLVQAGGSLRLSCAAAGRTFSANALGWSRQAPGKERELVATITLRGGSTNYADSVKGPFTISRDHAKNTVYLQINSLKPEDTAVYDCNAYVNANVRRAYWGFDYWGQGTHVTVSS,high polyreactivity
12,QVQLVEAGGGLVQAGGSLRLSCAASGFIFSSNAMGWYRQAPGKERELVAGITASGVSTYYADSVKGRFTISRDNAKNTVYLQMNSLKPEDTAVYDCAALGLYYYFYSQYIAWDDYWGQGTQVTVSS,low polyreactivity
13,QVQLVEAGGGLVQAGGSLRLSCAASGGTFTAYAMGWYRQAPGKERELVAAISASGDSTYYADSVKGRFTISRDNAKNTVYLQMNSLKPEDTAVYYCNADWYRTGRRGSDYWGQGTQVTVSS,low polyreactivity
14,QVQLVEAGGGLVQAGGSLRLSCAASGRIIVRNAMGWYLQPPGKESELVAAISWSSGGTYYADSVKGRFTISRDNAKNTVYLQMNSLKPEDTAVYYCNADPSRAGDYWGQGTQVTVSS,low polyreactivity
15,QVQLVEAGGGLVQAGGSLRLSCAASGRILRYYTMGWYRPAPGKERELVAAISRRGTSTHYADSVKGRFTISRDHAKNTVYLQMNSLKPEDTAVYYCAADPSVWSDYYYWGQGTQVTVSS,high polyreactivity
16,QVQLVEAGGGLVQAGGSLRLSCAASGRTFGSNAMGWYRQAPGKERELVAVITTSGGSTYYADSVKGRFTISRDNAKNTVYLQMNSLKPEDTAVYYCAKRVATGYIWYGYGYWGQGTQVTVSS,high polyreactivity
17,QVQLVEAGGGLVQAGGSLRLSCAASGRTFLYYDMGRYRQAPGKERELVAVITLRGGRTYYADSVKGRFTISRDNAKNTVYLQMNILKPEDTAVYYCAKDYSRGYNYWGQGTQVTVSS,high polyreactivity
18,QVQLVEAGGGLVQAGGSLRLSCAASGSIFFIYAMGWYRQAPGKERELVAAITSGDRTYYADSVKGRFTISRDNAKNTVYLQMNSLKPEDTAVYYCNADYYISYWGQGTQVTVSS,low polyreactivity
19,QVQLVEAGGGLVQAGGSLRLSCAASGYIGGNAMGWYRQAPGKERELVANISRSGGSTYYADSVKGRFTISRDNAKNTVYLQMNSLKPEDTAVYYCAAVSYGKYHWGMYYWGQGTQVTVSS,high polyreactivity
20,QVQLVEAGGRLVQAGGSLRLSCAASGGTFGTNNMGWYRQAPGKEMEVVAAISKRGGRTYYADSVKGRFTISRDNAKNTVYLQMNSLKPEDTAVYYCAADTGGNPKYDYWGQGTQVTVSS,high polyreactivity
21,QVQLVEAGGRLVQAGGSLRLSCAASGSIFYRNAMGGYRQKPGKEMELVAVITRRGGRKYYADSVKGRITISRDNAKNTVYLQMNSLIPEDTAVFYCAKRGWSDYNPIDYWGQGTPVTVSS,low polyreactivity
22,QVQLVEPGGCLVQAGGSLRLSCAASGSIFAYNSMGSYRQAPGKERELVAAITISGGRTYYADSVKGRFTISRDNAKNTVYLNMNSLKPEDTAVYYCNADNARGRSGVRRYYWGQGTQVTVSS,high polyreactivity

row,Sequence,polyreactivity (PSR sort gate)
1,QVQLVESAAGLVQAGASHRLSCAPSGRIFVNYAMGGYRQAPGKERELVAAITSDGSTSYADSVKGRFTISRDNAKNTVYLQMNSLKPEDSADYYCAKDFFEHSPVSLTYSSSKYDYWGQGTQVTVSS,low polyreactivity
2,QVQLVESAAGLVQAGGSLRLSCAASGFISPLYDMGGYRQAPGKERELVADITWRGGSTSYADSVKGRFTLSRDTAKKTGYLQMNSLKPEDTAVYYCAADARAFYYSNINGYWGQGTQVNVSS,high polyreactivity
3,QVQLVESAAGLVQAGGSLRLSCAASGITFYRNAMGWYRQARGNEMELGAAITWNGGRTYYADSVKGRFTISRDNAKNTVYLQMNSLKPEDTALYYCAADSGTRNLASYRYYYWGQGTQVTVSS,high polyreactivity
4,QVQLVESAAGLVQAGGSLRLSCAASGLNSSYYAMGWYRQAPGKERELVAAISRCGSTNYADSVKGRFTISRDNGKNTLYLQMNSLKPEDTAVYYCNADEYGGSTGRKGRYNYWGQGTQVTVSS,low polyreactivity
5,QVQLVESAAGLVQAGGSLRLSCAASGRIFGSYVMGWYRQAPGKERELVAAISASGGSTYYADSVKGRFTISRDNAKNTVYLQMNSLKPEDTAVYYCAATSIYTWWDLLDYWGQGTQVTVSS,high polyreactivity
6,QVQLVESAAGLVQAGGSLRLSCAASGRNFYYYAMGWYRQAPGKEREVVAAINWSGGGTYYADSVKGRFTISRDNAKNTVYLQMNSLKPEDTAVYYCAAGFRYRYYWGQGTQVTVSS,high polyreactivity
7,QVQLVESAAGLVQAGGSLRLSCAASGSILKLNAMGWYRQAPGKERELVAAISRGGRTYYADSVKGRFTISRDNAKNTVYLQMHSLKPEDTAVYYCAADACLLGPGDFNYWGQGTQVTVSS,low polyreactivity
8,QVQLVESAAGLVQAGGSLRLSCAASGSNFYGNAMGWYRQAPGKERELVAAIRWRGGRTYYADSVKGRFTISRDNAKNTVYLQMNSMKPEDTAVYYCNALPGVSHTQYDRVGYWGQGTQVTVSS,high polyreactivity
9,QVQLVESAAGLVQAGGSLRLSCAPSGIIFGSYAMGWYRQEPGKESELVAAISRGTSTYYADSVKGRFTISRDNAKNTVYLQMNSLKPEDTAVYYCAATRQQYGPLSRFVYWYYYWGQGTQVTVSS,low polyreactivity
10,QVQLVESAAGLVQAGGSLRLSCPASARILRYYAMGWYRQAPGKERELVAAISPRGGRTYYADSVKGRFTISRDNAKNTVYLQMNSLKPEDTAVYYCASPGYFTTPSGSYDYWGQGTQVTVSS,high polyreactivity
11,QVQLVESAAGLVQAGGSLSLSCAASGSILQSYAMGWYRQAPGKERELVAAISGSGGSTYYADSVKGRFTISRDNAKNTVYLQMNSLKPEDTAVYYCAKGPRYRTSRGEFGYWGQGTQVTLSS,low polyreactivity
12,QVQLVESAARLVQAGGSLRLSCAASGFTFKKYAMGWYRQAPGKARELVASITWSGGSTSYADSVKGRFTISRDTAKNTVYLLMNSLKPEDTAVYYCAAATFVYRLRYNRFDYWGQGTQETVSS,high polyreactivity
13,QVQLVESAGALVQAGGSLRLSCAASGSTYWRYTMGWYRQAPGKERELVAAISTRGGSTTYADSVKGRFTISRDNAKNTVYLQMNSLKPEDTAVYYCAAGRQYRFDFWGQGTQVTVSS,high polyreactivity
14,QVQLVESAGGLFQAGGSLRLSCAASGRIFGWNAMGWYIQATGKESELDAVITSGGITYYADSVKGRFTISPDNAKNTVCLQMISLKPEDTAVYYCAARGTEFYTYYRYYYWGQGTKVTVSS,high polyreactivity
15,QVQLVESAGGLVQAGGRLRLSCPPSGSTFAYNAMGWYRPEPGKERELVADITSGGSTKYADSVKVRFTISRDNAKNTVFLQMNSLKPEDTAVYYCAAVSVISGDFNYWGQGTEVTVSS,low polyreactivity
16,QVQLVESAGGLVQAGGRLSLSCAASGRTYKKYAMGWYRPEPGKERELVAAITGSGGSTYYADSVKGRFTISRDNAKNTVYLQMNSLKPEDTAVYYCAAYAYGVWDSQDGGNYWGLGTQVTVSS,low polyreactivity
17,QVQLVESAGGLVQAGGSHRLSCAASVLIFRYYAMGWFRQAPGKEWELFAAISNSGGGTYYADSVKGRFTISRDNAKNTVYLLMNSLIPVDTAVYYCAARHAFCFRFVSWGLGTQVTVSS,high polyreactivity
18,QVQLVESAGGLVQAGGSISLSCAASGIIFRYYAMGSYRQAPGKERELVAVITGRGGGTYYADSVKGRFTISRDNAKNTVYLQMNSLKPEDTAVYYCAKDFTGHYPKGFDYWGQGTQVTVSS,low polyreactivity
19,QVQLVESAGGLVQAGGSLRISCAASGRNFSTNAMGWYRQAPGKEMELVAAITSRGGSTYYADSVKGRFTISRDNAKNTVYLQMNSLIPEDPAVYYCAVDPLYYKTHYGTLGYYYWGQGTQVTVSS,low polyreactivity
20,QVQLVESAGGLVQAGGSLRITCAASGINFTFYTMGWYRQAPGKERELVAAITWSGGSTNYADSVKGRFTISRDNAKNTVYLQMNSLKPEDTAVYYCAAQGYPQSPPWEDYWGQGTQVTVSS,low polyreactivity
21,QVQLVESAGGLVQAGGSLRLICAASGRTTPIYALGWYRQAPGKERELVASITRGTRTNYADSVKGRFTISRDNAKTTVYLQMNSLKPEDTAVYYCAAVSYSYSLNPYDYWGQGTQVTVSS,low polyreactivity
